Source: patent US20140087995A1 (published 2014)
Numbered stars: 1 amine (or outer) side, 2 acyl side, 3 side chain; on linkers, the order of the positions; unused ones are H or OH. Bridge positions count the residues as written; N and C are the ends. Side chains are listed from the residue outwards. Ends that are not written are not given here. * marks the point of attachment. C20 diacid = O=C(O)CCCCCCCCCCCCCCCCCCC(=O)*; γGlu = O=C(O)[C@H](CCC(=O)[*:2])N[*:1]; AEEA = NCCOCCOCC(=O)O

B1: N^α1N^α1-[(4S)-4-carboxy-4-(19-carboxynonadecanoylamino)butanoyl]-[Glu14,Arg17,Pro21,Pro27,Glu35]-h-amylin (peptide)
peptide: {C20 diacid-γGlu}-KCNTATCATQRLAEFLRHSSPNFGAIPSSTNVGSETY-NH2
modifications: disulfide 2-7
SMILES: CC[C@H](C)[C@H](NC(=O)[C@H](C)NC(=O)CNC(=O)[C@H](Cc1ccccc1)NC(=O)[C@H](CC(N)=O)NC(=O)[C@@H]1CCCN1C(=O)[C@H](CO)NC(=O)[C@H](CO)NC(=O)[C@H](Cc1c[nH]cn1)NC(=O)[C@H](CCCNC(=N)N)NC(=O)[C@H](CC(C)C)NC(=O)[C@H](Cc1ccccc1)NC(=O)[C@H](CCC(=O)O)NC(=O)[C@H](C)NC(=O)[C@H](CC(C)C)NC(=O)[C@H](CCCNC(=N)N)NC(=O)[C@H](CCC(N)=O)NC(=O)[C@@H](NC(=O)[C@H](C)NC(=O)[C@@H]1CSSC[C@H](NC(=O)[C@H](CCCCN)NC(=O)CC[C@H](NC(=O)CCCCCCCCCCCCCCCCCCC(=O)O)C(=O)O)C(=O)N[C@@H](CC(N)=O)C(=O)N[C@@H]([C@@H](C)O)C(=O)N[C@@H](C)C(=O)N[C@@H]([C@@H](C)O)C(=O)N1)[C@@H](C)O)C(=O)N1CCC[C@H]1C(=O)N[C@@H](CO)C(=O)N[C@@H](CO)C(=O)N[C@H](C(=O)N[C@@H](CC(N)=O)C(=O)N[C@H](C(=O)NCC(=O)N[C@@H](CO)C(=O)N[C@@H](CCC(=O)O)C(=O)N[C@H](C(=O)N[C@@H](Cc1ccc(O)cc1)C(N)=O)[C@@H](C)O)C(C)C)[C@@H](C)O
notes: also called compound 22
B2: N^ε1-[2-[2-[2-[[2-[2-[2-[[(4S)-4-carboxy-4-(19-carboxynonadecanoylamino)butanoyl]amino]ethoxy]ethoxy]acetyl]amino]ethoxy]ethoxy]acetyl]-[Arg17,Pro21,Pro27,Glu35 … (peptide)
peptide: K([AEEA-AEEA-γGlu-C20 diacid])CNTATCATQRLANFLRHSSPNFGAIPSSTNVGSETY-NH2
modifications: disulfide 2-7; N-terminus assumed
SMILES: CC[C@H](C)[C@H](NC(=O)[C@H](C)NC(=O)CNC(=O)[C@H](Cc1ccccc1)NC(=O)[C@H](CC(N)=O)NC(=O)[C@@H]1CCCN1C(=O)[C@H](CO)NC(=O)[C@H](CO)NC(=O)[C@H](Cc1c[nH]cn1)NC(=O)[C@H](CCCNC(=N)N)NC(=O)[C@H](CC(C)C)NC(=O)[C@H](Cc1ccccc1)NC(=O)[C@H](CC(N)=O)NC(=O)[C@H](C)NC(=O)[C@H](CC(C)C)NC(=O)[C@H](CCCNC(=N)N)NC(=O)[C@H](CCC(N)=O)NC(=O)[C@@H](NC(=O)[C@H](C)NC(=O)[C@@H]1CSSC[C@H](NC(=O)[C@@H](N)CCCCNC(=O)COCCOCCNC(=O)COCCOCCNC(=O)CC[C@H](NC(=O)CCCCCCCCCCCCCCCCCCC(=O)O)C(=O)O)C(=O)N[C@@H](CC(N)=O)C(=O)N[C@@H]([C@@H](C)O)C(=O)N[C@@H](C)C(=O)N[C@@H]([C@@H](C)O)C(=O)N1)[C@@H](C)O)C(=O)N1CCC[C@H]1C(=O)N[C@@H](CO)C(=O)N[C@@H](CO)C(=O)N[C@H](C(=O)N[C@@H](CC(N)=O)C(=O)N[C@H](C(=O)NCC(=O)N[C@@H](CO)C(=O)N[C@@H](CCC(=O)O)C(=O)N[C@H](C(=O)N[C@@H](Cc1ccc(O)cc1)C(N)=O)[C@@H](C)O)C(C)C)[C@@H](C)O
notes: also called compound 25
B3: N^ε1-[2-[2-[2-[[(4S)-4-carboxy-4-(19-carboxynonadecanoylamino)butanoyl]amino]ethoxy]ethoxy]acetyl]-[Arg17,Pro21,Pro27,Glu35]-h-amylin (peptide)
peptide: K([AEEA-γGlu-C20 diacid])CNTATCATQRLANFLRHSSPNFGAIPSSTNVGSETY-NH2
modifications: disulfide 2-7; N-terminus assumed
SMILES: CC[C@H](C)[C@H](NC(=O)[C@H](C)NC(=O)CNC(=O)[C@H](Cc1ccccc1)NC(=O)[C@H](CC(N)=O)NC(=O)[C@@H]1CCCN1C(=O)[C@H](CO)NC(=O)[C@H](CO)NC(=O)[C@H](Cc1c[nH]cn1)NC(=O)[C@H](CCCNC(=N)N)NC(=O)[C@H](CC(C)C)NC(=O)[C@H](Cc1ccccc1)NC(=O)[C@H](CC(N)=O)NC(=O)[C@H](C)NC(=O)[C@H](CC(C)C)NC(=O)[C@H](CCCNC(=N)N)NC(=O)[C@H](CCC(N)=O)NC(=O)[C@@H](NC(=O)[C@H](C)NC(=O)[C@@H]1CSSC[C@H](NC(=O)[C@@H](N)CCCCNC(=O)COCCOCCNC(=O)CC[C@H](NC(=O)CCCCCCCCCCCCCCCCCCC(=O)O)C(=O)O)C(=O)N[C@@H](CC(N)=O)C(=O)N[C@@H]([C@@H](C)O)C(=O)N[C@@H](C)C(=O)N[C@@H]([C@@H](C)O)C(=O)N1)[C@@H](C)O)C(=O)N1CCC[C@H]1C(=O)N[C@@H](CO)C(=O)N[C@@H](CO)C(=O)N[C@H](C(=O)N[C@@H](CC(N)=O)C(=O)N[C@H](C(=O)NCC(=O)N[C@@H](CO)C(=O)N[C@@H](CCC(=O)O)C(=O)N[C@H](C(=O)N[C@@H](Cc1ccc(O)cc1)C(N)=O)[C@@H](C)O)C(C)C)[C@@H](C)O
notes: also called compound 26
B4: N^ε1-[(4S)-4-carboxy-4-(19-carboxynonadecanoylamino)butanoyl]-[Arg17,Pro21,Pro27,Glu35]-h-amylin (peptide)
peptide: K([γGlu-C20 diacid])CNTATCATQRLANFLRHSSPNFGAIPSSTNVGSETY-NH2
modifications: disulfide 2-7; N-terminus assumed
SMILES: CC[C@H](C)[C@H](NC(=O)[C@H](C)NC(=O)CNC(=O)[C@H](Cc1ccccc1)NC(=O)[C@H](CC(N)=O)NC(=O)[C@@H]1CCCN1C(=O)[C@H](CO)NC(=O)[C@H](CO)NC(=O)[C@H](Cc1c[nH]cn1)NC(=O)[C@H](CCCNC(=N)N)NC(=O)[C@H](CC(C)C)NC(=O)[C@H](Cc1ccccc1)NC(=O)[C@H](CC(N)=O)NC(=O)[C@H](C)NC(=O)[C@H](CC(C)C)NC(=O)[C@H](CCCNC(=N)N)NC(=O)[C@H](CCC(N)=O)NC(=O)[C@@H](NC(=O)[C@H](C)NC(=O)[C@@H]1CSSC[C@H](NC(=O)[C@@H](N)CCCCNC(=O)CC[C@H](NC(=O)CCCCCCCCCCCCCCCCCCC(=O)O)C(=O)O)C(=O)N[C@@H](CC(N)=O)C(=O)N[C@@H]([C@@H](C)O)C(=O)N[C@@H](C)C(=O)N[C@@H]([C@@H](C)O)C(=O)N1)[C@@H](C)O)C(=O)N1CCC[C@H]1C(=O)N[C@@H](CO)C(=O)N[C@@H](CO)C(=O)N[C@H](C(=O)N[C@@H](CC(N)=O)C(=O)N[C@H](C(=O)NCC(=O)N[C@@H](CO)C(=O)N[C@@H](CCC(=O)O)C(=O)N[C@H](C(=O)N[C@@H](Cc1ccc(O)cc1)C(N)=O)[C@@H](C)O)C(C)C)[C@@H](C)O
notes: also called compound 27
B5: N^ε1-[(4S)-4-carboxy-4-(19-carboxynonadecanoylamino)butanoyl]-[Arg17,Pro21,Pro27,Lys35]-h-amylin (peptide)
peptide: K([γGlu-C20 diacid])CNTATCATQRLANFLRHSSPNFGAIPSSTNVGSKTY-NH2
modifications: disulfide 2-7; N-terminus assumed
SMILES: CC[C@H](C)[C@H](NC(=O)[C@H](C)NC(=O)CNC(=O)[C@H](Cc1ccccc1)NC(=O)[C@H](CC(N)=O)NC(=O)[C@@H]1CCCN1C(=O)[C@H](CO)NC(=O)[C@H](CO)NC(=O)[C@H](Cc1c[nH]cn1)NC(=O)[C@H](CCCNC(=N)N)NC(=O)[C@H](CC(C)C)NC(=O)[C@H](Cc1ccccc1)NC(=O)[C@H](CC(N)=O)NC(=O)[C@H](C)NC(=O)[C@H](CC(C)C)NC(=O)[C@H](CCCNC(=N)N)NC(=O)[C@H](CCC(N)=O)NC(=O)[C@@H](NC(=O)[C@H](C)NC(=O)[C@@H]1CSSC[C@H](NC(=O)[C@@H](N)CCCCNC(=O)CC[C@H](NC(=O)CCCCCCCCCCCCCCCCCCC(=O)O)C(=O)O)C(=O)N[C@@H](CC(N)=O)C(=O)N[C@@H]([C@@H](C)O)C(=O)N[C@@H](C)C(=O)N[C@@H]([C@@H](C)O)C(=O)N1)[C@@H](C)O)C(=O)N1CCC[C@H]1C(=O)N[C@@H](CO)C(=O)N[C@@H](CO)C(=O)N[C@H](C(=O)N[C@@H](CC(N)=O)C(=O)N[C@H](C(=O)NCC(=O)N[C@@H](CO)C(=O)N[C@@H](CCCCN)C(=O)N[C@H](C(=O)N[C@@H](Cc1ccc(O)cc1)C(N)=O)[C@@H](C)O)C(C)C)[C@@H](C)O
notes: also called compound 35

Molecular target: T1, human amylin receptor (amylin 3(a) receptor: human calcitonin receptor with RAMP-3) (human, UniProt P30988 25-474; O60896 24-148)
T1 sequence (looked up) 1: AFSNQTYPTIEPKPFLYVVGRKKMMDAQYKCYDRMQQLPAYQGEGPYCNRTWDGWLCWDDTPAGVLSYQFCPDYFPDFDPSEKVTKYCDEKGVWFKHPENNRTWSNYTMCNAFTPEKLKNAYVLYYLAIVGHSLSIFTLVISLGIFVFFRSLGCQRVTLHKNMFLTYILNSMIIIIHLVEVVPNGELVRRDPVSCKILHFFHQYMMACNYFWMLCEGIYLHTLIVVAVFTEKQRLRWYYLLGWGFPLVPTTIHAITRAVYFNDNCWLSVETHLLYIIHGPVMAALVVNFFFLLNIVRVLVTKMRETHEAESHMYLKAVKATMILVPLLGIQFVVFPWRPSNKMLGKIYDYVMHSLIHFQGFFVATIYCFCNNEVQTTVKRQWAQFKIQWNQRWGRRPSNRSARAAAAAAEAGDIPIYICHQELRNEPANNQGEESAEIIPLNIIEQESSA
T1 sequence (looked up) 2: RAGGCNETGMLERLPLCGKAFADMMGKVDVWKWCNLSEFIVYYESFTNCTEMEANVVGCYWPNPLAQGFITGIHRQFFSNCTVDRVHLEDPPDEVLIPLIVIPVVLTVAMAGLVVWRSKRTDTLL
Experiment: cell-based or functional assay

| Binder | hAmylin-R funct. EC50 [pM] |
| --- | --- |
| B1 | 270 |
| B2 | 217 |
| B3 | 212 |
| B4 | 133 |
| B5 | 364 |

Molecular target: T2, human calcitonin receptor (human, UniProt P30988 25-474)
T2 sequence (looked up): T1 sequence (looked up) 1
Experiment: cell-based or functional assay

| Binder | Ratio hCT/hAmylin funct. | hCTR funct. EC50 [nM] |
| --- | --- | --- |
| B1 | 3.8 | 1.03 |
| B2 | 46.2 | 10 |
| B3 | 29.9 | 6.34 |
| B4 | 22.6 | 3 |
| B5 | 15 | 5.46 |
